Test: soluble on expression in E. coli; label from the status in PepcDB or PDB records

| Sequence | soluble on expression in E. coli |
| --- | --- |
| MAHHHHHHMSSKGAAMTPNGNGATHESRPGKKGRPPRRRADREAAGAHFDCGSSQTTEKGGDEYQYKHPKPRVLTSSLFMWEHVAVFSMPAQVAELERVSRDVARLLEDSNTGTHPMQRYWNAQWSRMVWREEELPDEKKYLAPTMLTRSDGKRKWKNVFVQEYPLYLKRVYQGKGVCNNAVNAAKVLFNRQVLNAAKTAAELERMELTVEEARVKEQKKRGVDVEFEETPDTAPSPPWLGCHHGSYPEKGERERHEKGRPRAVKKASHETYTRSDYKEDYRTGDRKGKHKKGGTGRWSKFDDFGDYDY | not soluble |
| MAHHHHHHMSSPAWSVYEGDWGSFCDDADNVPPTLSLKGCGLRQKCLLQRGAQGAVYLGEDADGNVFVVKRLFTQRSEFGVRGVSEGSLREATLLTYITERSKTLGPEPLFGVIRLERIVEAPFQELSLILERCAFNLSRMVFYSRKRAYSAAGLFPETPTRCPILAKMNVIQYLMRGILKILQFLHEECHIIHRDVKLGNLLVGEDGRVRLADFGSARFMHEPVEKMSDARSGEYTPISLRTTVIYQAPECLLGERSYTAAVDMWAAGVVFAELLLQQHLFHSCSELGMLSDIWKLLGTPSDDPSVCSGEGAVTYAVRTESTIERKFPERIVSAEGLDLLKRMLETNPKKRITDSEALRHPFLCGPAVESGMEEARRLWNKKVEACMQETVAQPAAMGMRSFYVDNVEFDEESGENDDDDGEIATLPTCLDCFPHILSDVNGRHDI | not soluble |
| MAHHHHHHMSVEEVQNAAAMADEEIPTLEAAEVPQNAKQSKRYAKAMAKMGLKPEPNITKVTIRKVGSLSFAMVQPEVYRFPGTNTFVIFGEAQLEDTSALAQEAAARAAVSGAASASSDAAASVPAAEEDDDEEVDAGDLDEKEINVVMSQANVSRSKAIKALKNNNGDIVNTIMELTM | soluble |
| MAHHHHHHMSVFAAARQRAAHYANRNPLFAKLNKTHLEYFNCVLREQCPKNKKPGRMLTDPNKIVSFNRDWMNQVEGECPVVLLPTSTQQVAAILRYCQSEKIGIVPQCGNTGLVYGSSALHDEVILSLREMNGDPVVSPQTMSTEAEAGVILQQLQEAAKTHDLLVPITMGSKGSAQIGGAVSTNAGGIHFARYGSMHANVLGLEVVTAQGEVLDMMSTLRKDNAGYDMKHLFIGSEGTLGVVTRVSLKLYPFPRSTQLALFRLTTFESVLELYRLAQEHLSECLSAFEVVDGESLSVTPQEELPFTRTSKSDTFRAGQDFTSAYFCVMVETNGSNAEHDMEKLSRFVEAAECNPRCVSKGDLGESFEPVLSQSLAQTAQLWNLREDTPVRLASAGTIYIFDVSFPLDKFYDIVLHFRKMIYKNGGFDPDEVLVVGYGHFGDGNIHLNVVDRTRKHSDALDAVLFPAVYEFCAAHSGSISAEHGVGVQKKAYLGFSRKPEVIALMRTLKRTMDPNGILNPYKVID | soluble |
| MAHHHHHHMTSFKDCLREVREAATEHLEGYRGGDTEKALQHIPREEALTTISLVAIRLLEQELPKRGAGNDASQHELHAQLRACRKALKSHSARSAAGDEGTSDKKRRRTEESTEAPTSSSYRGSATADRSGTSNSIELGQYASSDAFDQNEQKRMKFARLMGGAKVAAQGTGGAGGHSRHNTFAASNAELKRMNANLESQFESAMSHKGKKGLGA | soluble |
| MAHHHHHHMVFHLNIFNKGKRQNLVSAYLNHFKKSYFSGVTSGSDCVNKSEVSSDNNNNNNNNNNKIAHNFFSKKYQRNFENNNLSENQENNKNIIYSGSNIFKNIYNTEMMSNNNTVDVNMMDNNPAARLEELRTIMKKNKIDVYILINSDEHNSEIINEKDKKIVKITNYSGADGILIVTKDKPILYVNALYELQAMNELDQNLFTLRISRIDNRDEIFETISSLEFNTIAFDGKNTSVVFYEKLRKALLNAYPKKKIVEKIIYNNNFDDVNKKDDENVLNFLVLEKSLVEIKDYPVNNKTLYIHDRKYNGACAGEKIDKLKQSLMYDIKNVDNLLLSELDEIAYLLNLRGYDYQYSPLFYSYLLFQFDREEQDFSKIVFFTTVKNLPADVKNLLEINKVIVKEYEEIVPYLRDVVIPSIPKHNDDNPDFKKYDISLSPYINLMIYKLFDRKNVLLQNSPVVKMKAVKNDVEIDNMKQAHILDGLALLQFFHWCEQKRKTKELFNETEMSLRHKVDYFRSTKKNFIFPSFSTISASGPNAAVIHYECTDKTNATIKPAIYLLDSGGQYLHGTTDVTRTTHFGEPTAEEKRIYTLVLKGHLRLRKVIFASYTNSSALDFIARENLFNNFMDYNHGTGHGVGLTLNVHEGGCSIGPVGGAPLKKNMVLSNEPGYYMKDKFGVRIENMQYVISKEITDTTEYLSFDDLTMYPYEK | not soluble |
| MAHHHHHHMVSNVADVRQINLTDSSNFLLMACDGLWDVVENEEATQFVRDFLSYTPDVGSSPEATKRALNNCCQKLAEFAVDRGSTDNVSVMLLFFHDVADVVAGFDKPVGAVVSPPASQVLSPRLTGPSRGIPFGSSMLDGGLHTSSGTSGTRRPSFGSVSSLHGRGRSIW | not soluble |
| MAHHHHHHMVVSLIGPLDSPYVQRTLLVAAYAGIQLKLVPIQIGRENETEEYRLNCHPMQRVPVMKTDEGYLFESNAMIRYLARTEVMLVSVSAGIDSAGANNEKIPHPQYPIPYAMYGHSLLESTQVDSWLDFAITRIDFYTRQFFAYEHKTGPKPAADMKTLLCKSLDGLERRVAYLKEACRALVQQSGSLTSRSVMTDEELVWNEEDYMASRATRDSRLSSVYNVAGSIRQRHMEKERQEREKQLMLIKKTTDDALGKEEGADDPHHPSRRPSVSRDSMAISATPRASVLMSARSTMGSAAPGVQRHDLLFLVGGSLTAADLVMAMSLHGVLCCQELKPVLTSKYPNLFKYYKSVLMLPVAAEVRKAIRLSIIKE | soluble |
| MAHHHHHHMWRRAACQAVTSRFFRPAVAASTASSSSALRESCRTGIIIGNPKQGMIDPIHVSWTDIAGSDTTPGARLAAGRVLAMLDMCAARTSQKAIDHQDCLTHERYLTCTVGVTNTMFSSPILHGDAVRLDGRLVCCGSSSMGIYIRFYRQSPSTRTETPAGHSFFTMVAITPDLKAAKVVPAIELTDPLDIELHNHYVKVRKLQEENKKNTAERLKRTLTTEEVQCSINQQKPIHARINSTRVEANRIFFTSCMNNNNTVFGGELMAWMEQHAVHCGRMFTGNRYVFTIGMHSVAFPEPVFATDWVTLEATVIYVRNTTMEVDVVLKAERKDAGTVITNRASFVLINNDDIGRKCAIPIGLELNGATQEELQQFMEARVRYHCSVARRDDFHASNLCTGTTKL | not soluble |
| MAHHHHHHMYRNLFDKLKDGPLKISILGSGNWASAISKVVGTNAKNNYLFENEVRMWIRDEFVNGERMVDIINNKHENTKYLKGVPLPHNIVAHSDLASVINDADLLIFIVPCQYLESVLASIKESESIKIASHAKAISLTKGFIVKKNQMKLCSNYISDFLNIPCSALSGANIAMICGALKNIITLACGFCDGLNLPTNSKSAIIRNGINEMILFGKGTVTLKYVYHMIKEKNMTNEFPLFTVLHKISFENEDPSSLLKTFMNNKINQLNL | not soluble |
| MAHHHHHHMYVFRFHISSFHSFLVNFLQPSRGVGEPSRLLDHLETHPSYMRRVTSTAVHRTVSSVLSPALLPSFNGTLLLSVCFASCSAAPVRNLYKRLGLDHKATSEEVKAAYRQRALECHPDVVDDNRKAQAEVDFRAVSEAYDVLIDPQKRKEHDKALGLERTVPPAKKQQEGEGVGCDSKGSFNRGVTRPRNRKPFVRGDADRNFREAFHGMSLDQVLFRERLRQRRMQKQMEEKAKEGDDGSPAGREESIRRVAAAAAERFAEKVRRQYGPGMLRHARVYTSLSRDPQPPPSDYMPFRPFHGWTVPNGVRTPPEPTLGPTAKVEDVKDVQLAEPAVGDASHQRKLPKHFPVVQAPDGSSLLREEAIACMERERRLPHNMGKLYSYHRPY | not soluble |
| MAHHHHHHSLCKAFCSCYSYHYHHREKMGIKEYYDKLAKSYDKLYKNKYMRIVEREIIQKEIKDGDFVLDIGCGTGEQLKILNNAVGLDISLEMAKIAKNKTNKPVVVANAEFLPFKNKSFDKAISFFGALNHCNLKRALREVNRVLKDDGIFIFTVANIYDIKWIIKNILKGNFKKVKNAMKKRKGTITKVIDGEKIKVKTRFYDFKEVEDALKKEGFEVVYTFGTNITNSPLDKFIYKSFLKNFASYIGFVAKKVKNREG | not soluble |
